From publication PMC7336285, “Metabolite‐based genome‐wide association study enables dissection of the flavonoid decoration pathway of wheat kernels” (Plant Biotechnology Journal, 2020) come the findings set out here.

Substrate in data set [1]: COc1cc(-c2cc(=O)c3c(O)cc(O)cc3o2)cc(OC)c1O
Nature of the data set: LC-MS product assay, Michaelis-Menten fit. It is filed as biochemical, Triticum aestivum. The following applies: formation of tricin 4′-O-glucoside (product postulated), UDP-glucose 0.75 mM, MgCl2 10 mM, Tris-HCl pH 7.4, 37 °C.

Substrate in data set [2]: COc1cc(-c2cc(=O)c3c(O)cc(O[C@@H]4O[C@H](CO)[C@@H](O)[C@H](O)[C@H]4O)cc3o2)cc(OC)c1O
Nature of the data set: LC-MS product assay, Michaelis-Menten fit. In kind it is biochemical, Triticum aestivum. The following applies: formation of tricin 7-O-malonylglucoside, malonyl-CoA 0.03 mM, Tris-HCl pH 7.4, 37 °C.

B1: TraesCS1A01G347100 (Triticum aestivum) (protein)
chain: MEAANPNPTVVLHACLGVGHLIPMVELAKLFLLRGVPVVIAVPTPPASTADFFSSTASAVAGLEAANPSIAFHHLPPPDYPDPDPHPFLQMLDLLRLTVPSLLAFLRSLPSVAALVLDLFCIDSLDAAAQTGVPAYIYYTSSAGDLAAFLHLPHHFATTEGSFRDMGKAPLRFPGVPPIPASDMPHTVMDRADPICTIRIGHYGRIPEARGVLVNTYEWLEARAVGALREGVCVPGRPTPPVYCIGPLIVSDSAAAQGERHACLSWLDAQPERSVVFLCFGSMGAVSAAELKEIAHGLENSGHRFLWVVRTPPADPAKFFLPRPEPDLDALLPEGFTERTRDRGMVLKMWAPQVEVLRHAATGAFVTHCGWNSVLEAASAGVPMLCWPQYAEQRLNKEFVVDEMKVGVVMEGYDEELVRAEEVERKVRLVMESEEGEKLRERLALAKEKAAEAMADGGPSRMALAEFLKHSKLST
notes: GST-tagged (pGEX-6p-1), E. coli BL21(DE3), glutathione Sepharose purified, tag cleavage not mentioned
Turning to B1, the Km in data set [1] was 6.49 ± 0.71 µM.

B2: TraesCS2B01G472400 (Triticum aestivum) (protein)
chain: MARLLRTSLVAPSPAGAALHERSLPLTYLDALWLHATPVERVFFYPNATSDVLSNLTDSLSNALAAFYPLAGRLRLTPGAHNRYELHCQPGDGVTFTVAEYHHVGFDELATDEPTEVAKIVPLVPPLPEGGAVLAVQATVLRGGLAIGVTVHHAACDGVSSTHFLRTWAWAAAACSGASAPVPPFVDRSIIRARDDLYDAFTAPRLSSNDDDDGGKPPDSPVVQQLLATFTLSKEHLQSIKEAVAGEAERRGVPLPRATSIIAAFGFIWQCYVRAKPGTDGKAGSSCGGRAYFLLPADHRTRLEPPVPDEYLGNCLGPCIALAPRRDVAAAGADGLFTACAAIATAIDGVVRSGPGCWDGWMERIIEAYTAGDLPLTVAGSPRFRVYDTDFGFGRPAKVDVVSVARTGAMSVAEARSGGGGVEVGISLSAGAMERFNECFADAIASLSS
notes: as for B1
On to B2, for which, in data set [2], the Km was 20.53 ± 1.02 µM and the kcat worked out at 81.72 ± 6.11 s⁻¹.
